From the supplement of paper PMC10567573

B1: TRIM39 (parent)
chain: ERDFPCPVCRKTSRYRSLRPNRQL
B2: FBF1 (parent)
chain: QLQCSPAELQAELLHSQARLAELE

Variants of: B1
Assay: protein stability index of a GFP-peptide fusion (GPS, HEK-293T) (PSI 1-6); higher = more stable
Settings: c terminus: a fixed tail appended
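Also: lentivirally expressed fusions sorted by FACS into six bins by GFP to DsRed ratio, PSI derived from sequencing read proportions per bin multiplied by bin number.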

| Variant | protein stability index |
| --- | --- |
| ERDFPCPVCRKTSRYRSLRPNRRL | 1.71 |
| ERDFPCPVCRKTSRYRSLRPNRWL | 2.26 |
| ERDFPCPVCRKTSRYRSLRPNRTL | 2.9 |
| ERDFPCPVCRKTSRYRSLRPNRAL | 1.33 |
| ERDFPCPVCRKTSRYRSLRPNRNL | 2.77 |
| ERDFPCPVCRKTSRYRSLRPNRSL | 2.17 |
| ERDFPCPVCRKTSRYRSLRPNRHL | 3.18 |
| ERDFPCPVCRKTSRYRSLRPNRGL | 2.46 |
| ERDFPCPVCRKTSRYRSLRPNRCL | 1.8 |
| ERDFPCPVCRKTSRYRSLRPNRKL | 1.92 |
| ERDFPCPVCRKTSRYRSLRPNRLL | 1.87 |
| ERDFPCPVCRKTSRYRSLRPNRFL | 1.67 |
| ERDFPCPVCRKTSRYRSLRPNRIL | 1.68 |
| ERDFPCPVCRKTSRYRSLRPNRDL | 2.34 |
| ERDFPCPVCRKTSRYRSLRPNRPL | 1.47 |
| ERDFPCPVCRKTSRYRSLRPNRML | 2.27 |
| ERDFPCPVCRKTSRYRSLRPNRYL | 1.66 |
| ERDFPCPVCRKTSRYRSLRPKRQL | 2.78 |
| ERDFPCPVCRKTSRYRSLRPERQL | 1.71 |
| ERDFPCPVCRKTSRYRSLRPDRQL | 2.12 |
| ERDFPCPVCRKTSRYRSLRPYRQL | 2.52 |
| ERDFPCPVCRKTSRYRSLRPVRQL | 1.9 |

| Variant | protein stability index |
| --- | --- |
| ERDFPCPVCRKTSRYRSLRPMRQL | 2.74 |
| ERDFPCPVCRKTSRYRSLRPRRQL | 2.96 |
| ERDFPCPVCRKTSRYRSLRPSRQL | 1.91 |
| ERDFPCPVCRKTSRYRSLRPIRQL | 1.85 |
| ERDFPCPVCRKTSRYRSLRPHRQL | 1.77 |
| ERDFPCPVCRKTSRYRSLRPQRQL | 1.62 |
| ERDFPCPVCRKTSRYRSLRPWRQL | 2.53 |
| ERDFPCPVCRKTSRYRSLRPFRQL | 2.6 |
| ERDFPCPVCRKTSRYRSLRPPRQL | 2.12 |
| ERDFPCPVCRKTSRYRSLRPNRQC | 3.12 |
| ERDFPCPVCRKTSRYRSLRPNRQI | 1.85 |
| ERDFPCPVCRKTSRYRSLRPNRQN | 2.41 |
| ERDFPCPVCRKTSRYRSLRPNRQH | 2.82 |
| ERDFPCPVCRKTSRYRSLRPNRQW | 1.36 |
| ERDFPCPVCRKTSRYRSLRPNRQD | 1.75 |
| ERDFPCPVCRKTSRYRSLRPNRQS | 3.32 |
| ERDFPCPVCRKTSRYRSLRPNRQT | 2.51 |
| ERDFPCPVCRKTSRYRSLRPNRQA | 1.81 |
| ERDFPCPVCRKTSRYRSLRPNRQQ | 3.08 |
| ERDFPCPVCRKTSRYRSLRPNRQV | 2.19 |
| ERDFPCPVCRKTSRYRSLRPNRQP | 3.2 |
| ERDFPCPVCRKTSRYRSLRPNRQG | 2.06 |

| Variant | protein stability index |
| --- | --- |
| ERDFPCPVCRKTSRYRSLRPNRQF | 2.04 |
| ERDFPCPVCRKTSRYRSLRPNRQR | 3.37 |
| ERDFPCPVCRKTSRYRSLQPNRQL | 1.91 |
| ERDFPCPVCRKTSRYRSLIPNRQL | 2.1 |
| ERDFPCPVCRKTSRYRSLHPNRQL | 2.08 |
| ERDFPCPVCRKTSRYRSLAPNRQL | 1.63 |
| ERDFPCPVCRKTSRYRSLSPNRQL | 2.58 |
| ERDFPCPVCRKTSRYRSLTPNRQL | 1.75 |
| ERDFPCPVCRKTSRYRSLVPNRQL | 1.85 |
| ERDFPCPVCRKTSRYRSLDPNRQL | 1.54 |
| ERDFPCPVCRKTSRYRSLMPNRQL | 1.29 |
| ERDFPCPVCRKTSRYRSLLPNRQL | 2 |
| ERDFPCPVCRKTSRYRSLYPNRQL | 2.12 |
| ERDFPCPVCRKTSRYRSLNPNRQL | 1.78 |
| ERDFPCPVCRKTSRYRSLWPNRQL | 2.1 |
| ERDFPCPVCRKTSRYRSLEPNRQL | 1.59 |
| ERDFPCPVCRKTSRYRSLPPNRQL | 1.98 |
| ERDFPCPVCRKTSRYRSLGPNRQL | 1.89 |
| ERDFPCPVCRKTSRYRSLKPNRQL | 1.82 |
| ERDFPCPVCRKTSRYRSLRYNRQL | 1.84 |
| ERDFPCPVCRKTSRYRSLRRNRQL | 4.09 |
| ERDFPCPVCRKTSRYRSLRVNRQL | 2.07 |

| Variant | protein stability index |
| --- | --- |
| ERDFPCPVCRKTSRYRSLRINRQL | 1.6 |
| ERDFPCPVCRKTSRYRSLRQNRQL | 2.17 |
| ERDFPCPVCRKTSRYRSLRFNRQL | 3.1 |
| ERDFPCPVCRKTSRYRSLRCNRQL | 2.44 |
| ERDFPCPVCRKTSRYRSLRSNRQL | 1.76 |
| ERDFPCPVCRKTSRYRSLRTNRQL | 2.13 |
| ERDFPCPVCRKTSRYRSLRDNRQL | 2.06 |
| ERDFPCPVCRKTSRYRSLRWNRQL | 1.84 |
| ERDFPCPVCRKTSRYRSLRMNRQL | 3.02 |
| ERDFPCPVCRKTSRYRSLRLNRQL | 1.75 |
| ERDFPCPVCRKTSRYRSLRNNRQL | 1.77 |
| ERDFPCPVCRKTSRYRSLRKNRQL | 2.58 |
| ERDFPCPVCRKTSRYRSLRANRQL | 2.22 |
| ERDFPCPVCRKTSRYRSLRHNRQL | 1.87 |
| ERDFPCPVCRKTSRYRSLRENRQL | 2.04 |
| ERDFPCPVCRKTSRYRSNRPNRQL | 2.41 |
| ERDFPCPVCRKTSRYRSRRPNRQL | 2.87 |
| ERDFPCPVCRKTSRYRSWRPNRQL | 2.26 |
| ERDFPCPVCRKTSRYRSPRPNRQL | 2.89 |
| ERDFPCPVCRKTSRYRSIRPNRQL | 1.81 |
| ERDFPCPVCRKTSRYRSQRPNRQL | 2.39 |
| ERDFPCPVCRKTSRYRSVRPNRQL | 2.49 |

| Variant | protein stability index |
| --- | --- |
| ERDFPCPVCRKTSRYRSTRPNRQL | 3.13 |
| ERDFPCPVCRKTSRYRSMRPNRQL | 1.82 |
| ERDFPCPVCRKTSRYRSYRPNRQL | 1.96 |
| ERDFPCPVCRKTSRYRSSRPNRQL | 2.42 |
| ERDFPCPVCRKTSRYRSLRPNVQL | 1.76 |
| ERDFPCPVCRKTSRYRSLRPNHQL | 1.56 |
| ERDFPCPVCRKTSRYRSLRPNLQL | 1.83 |
| ERDFPCPVCRKTSRYRSLRPNAQL | 3.44 |
| ERDFPCPVCRKTSRYRSLRPNMQL | 2.86 |
| ERDFPCPVCRKTSRYRSLRPNQQL | 1.95 |
| ERDFPCPVCRKTSRYRSLRPNEQL | 2.4 |
| ERDFPCPVCRKTSRYRSLRPNDQL | 2.37 |
| ERDFPCPVCRKTSRYRSLRPNIQL | 1.93 |
| ERDFPCPVCRKTSRYRSLRPNYQL | 2.23 |
| ERDFPCPVCRKTSRYRSLRPNFQL | 1.79 |
| ERDFPCPVCRKTSRYRSLRPNNQL | 1.6 |
| ERDFPCPVCRKTSRYRSLRPNTQL | 2.04 |
| ERDFPCPVCRKTSRYRSLRPNSQL | 1.5 |
| ERDFPCPVCRKTSRYRSLRPNKQL | 2.66 |
| ERDFPCPVCRKTSRYRSLRPNGQL | 2.17 |

Variants of: B2
Assay: as above
Settings: c terminus: a fixed tail appended

| Variant | protein stability index |
| --- | --- |
| QLNCSPAELQAELLHSQARLAELE | 2.81 |
| QLMCSPAELQAELLHSQARLAELE | 2.59 |
| QLLCSPAELQAELLHSQARLAELE | 3.35 |
| QLPCSPAELQAELLHSQARLAELE | 3.01 |
| QLYCSPAELQAELLHSQARLAELE | 2.12 |
| QLHCSPAELQAELLHSQARLAELE | 2.6 |
| QLTCSPAELQAELLHSQARLAELE | 3.48 |
| QLACSPAELQAELLHSQARLAELE | 3.13 |
| QLECSPAELQAELLHSQARLAELE | 3.54 |
| QLRCSPAELQAELLHSQARLAELE | 3.21 |
| QLSCSPAELQAELLHSQARLAELE | 3.53 |
| QLFCSPAELQAELLHSQARLAELE | 2.11 |
| QLVCSPAELQAELLHSQARLAELE | 3.1 |
| QLKCSPAELQAELLHSQARLAELE | 2.19 |
| QLCCSPAELQAELLHSQARLAELE | 2.53 |
| QLDCSPAELQAELLHSQARLAELE | 3.1 |
| QLWCSPAELQAELLHSQARLAELE | 2.62 |
| QLICSPAELQAELLHSQARLAELE | 2.69 |
| QLGCSPAELQAELLHSQARLAELE | 3.25 |
| HLQCSPAELQAELLHSQARLAELE | 3.26 |
| KLQCSPAELQAELLHSQARLAELE | 2.69 |
| GLQCSPAELQAELLHSQARLAELE | 2.77 |
| FLQCSPAELQAELLHSQARLAELE | 2.06 |
| PLQCSPAELQAELLHSQARLAELE | 3.91 |
| NLQCSPAELQAELLHSQARLAELE | 2.82 |
| ALQCSPAELQAELLHSQARLAELE | 2.89 |
| SLQCSPAELQAELLHSQARLAELE | 3.31 |

| Variant | protein stability index |
| --- | --- |
| TLQCSPAELQAELLHSQARLAELE | 3.33 |
| YLQCSPAELQAELLHSQARLAELE | 2.6 |
| CLQCSPAELQAELLHSQARLAELE | 2.91 |
| LLQCSPAELQAELLHSQARLAELE | 2.62 |
| ELQCSPAELQAELLHSQARLAELE | 3.2 |
| ILQCSPAELQAELLHSQARLAELE | 2.82 |
| DLQCSPAELQAELLHSQARLAELE | 3.2 |
| WLQCSPAELQAELLHSQARLAELE | 2.8 |
| RLQCSPAELQAELLHSQARLAELE | 2.59 |
| VLQCSPAELQAELLHSQARLAELE | 2.41 |
| MLQCSPAELQAELLHSQARLAELE | 2.64 |
| QMQCSPAELQAELLHSQARLAELE | 3.61 |
| QFQCSPAELQAELLHSQARLAELE | 2.83 |
| QAQCSPAELQAELLHSQARLAELE | 3.02 |
| QIQCSPAELQAELLHSQARLAELE | 2.82 |
| QDQCSPAELQAELLHSQARLAELE | 3.65 |
| QTQCSPAELQAELLHSQARLAELE | 2.94 |
| QYQCSPAELQAELLHSQARLAELE | 3.35 |
| QWQCSPAELQAELLHSQARLAELE | 2.75 |
| QKQCSPAELQAELLHSQARLAELE | 2.89 |
| QSQCSPAELQAELLHSQARLAELE | 3.96 |
| QHQCSPAELQAELLHSQARLAELE | 3.21 |
| QRQCSPAELQAELLHSQARLAELE | 2.59 |
| QVQCSPAELQAELLHSQARLAELE | 3.68 |
| QNQCSPAELQAELLHSQARLAELE | 3.52 |
| QEQCSPAELQAELLHSQARLAELE | 4.46 |
| QPQCSPAELQAELLHSQARLAELE | 4.15 |

| Variant | protein stability index |
| --- | --- |
| QGQCSPAELQAELLHSQARLAELE | 3.38 |
| QQQCSPAELQAELLHSQARLAELE | 3.85 |
| QCQCSPAELQAELLHSQARLAELE | 2.42 |
| QLQASPAELQAELLHSQARLAELE | 3.99 |
| QLQKSPAELQAELLHSQARLAELE | 4.23 |
| QLQMSPAELQAELLHSQARLAELE | 3.82 |
| QLQLSPAELQAELLHSQARLAELE | 3.92 |
| QLQFSPAELQAELLHSQARLAELE | 3.14 |
| QLQNSPAELQAELLHSQARLAELE | 3.26 |
| QLQRSPAELQAELLHSQARLAELE | 3.94 |
| QLQHSPAELQAELLHSQARLAELE | 3.15 |
| QLQQSPAELQAELLHSQARLAELE | 3.92 |
| QLQYSPAELQAELLHSQARLAELE | 3.77 |
| QLQWSPAELQAELLHSQARLAELE | 2.82 |
| QLQSSPAELQAELLHSQARLAELE | 3.82 |
| QLQDSPAELQAELLHSQARLAELE | 4.22 |
| QLQPSPAELQAELLHSQARLAELE | 3.65 |
| QLQISPAELQAELLHSQARLAELE | 2.93 |
| QLQESPAELQAELLHSQARLAELE | 4.39 |
| QLQVSPAELQAELLHSQARLAELE | 2.96 |
| QLQTSPAELQAELLHSQARLAELE | 3.49 |
| QLQGSPAELQAELLHSQARLAELE | 3.32 |
| QLQCEPAELQAELLHSQARLAELE | 3.25 |
| QLQCCPAELQAELLHSQARLAELE | 3.03 |
| QLQCDPAELQAELLHSQARLAELE | 2.74 |
| QLQCAPAELQAELLHSQARLAELE | 3.48 |
